Assay results reported in the supplement of paper PMC7877785.
± gives the uncertainty stated by the source.

Assay: self-splicing fitness, log relative to wild type (ln ratio); higher = more splicing; Tetrahymena group I intron in knt gene, E. coli kanamycin selection, DiMSum; sequences stand for … in CUCUCU…GGAGGGAAAAGUUAUCAGGCAUGCACCUGGUAGCUAGUCUUUAAACCAAUAGAUUGCAUCGGUUUAAAAGGCAAGACCGUCAAAUUGCGGGAAAGGGGUCAACAGCCGUUCAGUACCAAGUCUCAGGGGAAACUUUGAGAUGGCCUUGCAAAGGGUAUGGUAAUAAGCUGACGGACAUGGUCCUAACCACGCAGCCAAGUCCUAAGUCAACAGAUCUUCUGUUGAUAUGGAUGCAGUUCACAGACUAAAUGUCGGUCGGGGAAGAUGUAUUCUUCUCAUAAGAUAUAGUCGGACCUCUCCUUAAUGGGAGCUAGCGGAUGAAGUGAUGCAACACUGGAGCCGCUGGGAACUAAUUUGUAUGCGAAAGUAUAUUGAUUAGUUUUGGAGUACUCGUGGUCG
Summary of the method: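 Six replicate transformations of E. coli BL21(DE3) with a pET-22b(+) library were grown overnight at 37°C or 30°C. The library randomised all eight P1ex-region intron nucleotides, the intron lying in the knt kanamycin-resistance gene, and plates were LB agar with or without 25 μg/mL kanamycin plus 100 μg/mL carbenicillin, 50 μM IPTG and 0.2% rhamnose. Pooled colonies were amplicon-sequenced on an Illumina HiSeq 2500, and fitness is the DiMSum error-weighted combination of wild-type-normalised replicate fold changes, kanamycin versus none.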

Sequence | self-splicing fitness (ln) (30 °C) | self-splicing fitness (ln) (37 °C)
GAGUAGCAAUAUUACGGUUG | -2.7 ± 0.2 | -1.06 ± 0.2
GAGUAGCAAUAUUACGUGCA | -1.35 ± 0.14 | 0.558 ± 0.2
GAGUAGCAAUAUUACGUGCG | -2.61 ± 0.17 | 0.0549 ± 0.13
GAUAAGCAAUAUUACGAACG | -1.22 ± 0.14 | -0.754 ± 0.17
GAUAAGCAAUAUUACGAAGC | -2.17 ± 0.28 | -0.18 ± 0.21
GAUAAGCAAUAUUACGACAC | -0.403 ± 0.12 | 0.0901 ± 0.16
GAUAAGCAAUAUUACGAGCC | -1.5 ± 0.17 | -1.27 ± 0.23
GAUAAGCAAUAUUACGCACG | -1.16 ± 0.13 | -0.4 ± 0.17
GAUAAGCAAUAUUACGCACU | -1.21 ± 0.16 | -0.284 ± 0.2
GAUAAGCAAUAUUACGCCGA | -2.01 ± 0.18 | -1.14 ± 0.22
GAUAAGCAAUAUUACGCGGC | -3.27 ± 0.26 | -1.13 ± 0.2
GAUAAGCAAUAUUACGCUUC | – | -3.04 ± 0.29
GAUAAGCAAUAUUACGGAGC | -3.95 ± 0.29 | -1.76 ± 0.19
GAUAAGCAAUAUUACGGGGC | -2.96 ± 0.25 | -1.62 ± 0.18
GAUAAGCAAUAUUACGGGUG | -1.09 ± 0.081 | -1.02 ± 0.099
GAUAAGCAAUAUUACGGUAU | -2.17 ± 0.1 | -1.46 ± 0.12
GAUAAGCAAUAUUACGUACA | -0.491 ± 0.15 | -0.262 ± 0.16
GAUAAGCAAUAUUACGUAUG | -1.53 ± 0.11 | -1.37 ± 0.1
GAUAAGCAAUAUUACGUGUU | -2.67 ± 0.17 | -2.18 ± 0.14
GAUAAGCAAUAUUACGUUGC | -3.38 ± 0.15 | -2.3 ± 0.21
GAUCAGCAAUAUUACGACGA | -0.224 ± 0.13 | 0.262 ± 0.14
GAUCAGCAAUAUUACGAUGG | -1.22 ± 0.096 | 0.121 ± 0.14
GAUCAGCAAUAUUACGCACG | -0.77 ± 0.076 | 0.0829 ± 0.077
GAUCAGCAAUAUUACGCAUU | -2.36 ± 0.26 | -1.05 ± 0.32

Sequence | self-splicing fitness (ln) (30 °C) | self-splicing fitness (ln) (37 °C)
GAUCAGCAAUAUUACGCCAU | -3.36 ± 0.3 | -1.33 ± 0.19
GAUCAGCAAUAUUACGCCCG | -0.808 ± 0.25 | -0.447 ± 0.21
GAUCAGCAAUAUUACGCGCU | -1.86 ± 0.12 | -0.35 ± 0.12
GAUCAGCAAUAUUACGCUUA | -0.551 ± 0.12 | 0.0926 ± 0.13
GAUCAGCAAUAUUACGGAGG | -3.86 ± 0.24 | -1.82 ± 0.15
GAUCAGCAAUAUUACGGCAU | -0.0116 ± 0.068 | 0.0262 ± 0.092
GAUCAGCAAUAUUACGGGAC | -1.51 ± 0.085 | -0.976 ± 0.1
GAUCAGCAAUAUUACGGGGA | -1.61 ± 0.12 | -0.776 ± 0.12
GAUCAGCAAUAUUACGGGGU | -3.13 ± 0.3 | -2.32 ± 0.26
GAUCAGCAAUAUUACGGUGC | -2.03 ± 0.13 | -0.734 ± 0.11
GAUCAGCAAUAUUACGUUGU | -3.48 ± 0.13 | -2.78 ± 0.16
GAUCAGCAAUAUUACGUUUA | -0.394 ± 0.084 | 0.0451 ± 0.095
GAUCAGCAAUAUUACGUUUU | -0.968 ± 0.058 | 0.149 ± 0.08
GAUGAGCAAUAUUACGAACU | -0.431 ± 0.31 | -0.239 ± 0.31
GAUGAGCAAUAUUACGACUC | -1.68 ± 0.14 | -0.273 ± 0.24
GAUGAGCAAUAUUACGAGCU | -3.65 ± 0.26 | -2.11 ± 0.24
GAUGAGCAAUAUUACGAGGU | -2.66 ± 0.32 | -1.99 ± 0.33
GAUGAGCAAUAUUACGAUGC | -1.35 ± 0.086 | -0.41 ± 0.12
GAUGAGCAAUAUUACGCAAC | -2.76 ± 0.21 | -1.85 ± 0.21
GAUGAGCAAUAUUACGCACC | -1.94 ± 0.44 | -1.13 ± 0.31
GAUGAGCAAUAUUACGCAGU | -3.61 ± 0.3 | -2.44 ± 0.33
GAUGAGCAAUAUUACGCCUU | -1.7 ± 0.24 | –
GAUGAGCAAUAUUACGCGCA | -1.91 ± 0.21 | -1.58 ± 0.19
GAUGAGCAAUAUUACGGAUU | -3.44 ± 0.44 | -1.68 ± 0.2
